Test results reported in article PMC10772564, “Structural and Biochemical Analysis of 3-Dehydroquinate Dehydratase from Corynebacterium glutamicum” (Journal of Microbiology and Biotechnology, 2023).
Changes are numbered by the printed parent chain. In names and notes the source's numbering stands.

T1: CgDHQD (Corynebacterium glutamicum, UniProt O52377)
T1 construct: gene aroQ; full length in pET30a (NdeI/XhoI), C-terminal 6xHis tag not reported cut, E. coli BL21(DE3); by primers starts MPGKILLLN, ends DILANLKK before tag
T1 sequence (O52377 1-145): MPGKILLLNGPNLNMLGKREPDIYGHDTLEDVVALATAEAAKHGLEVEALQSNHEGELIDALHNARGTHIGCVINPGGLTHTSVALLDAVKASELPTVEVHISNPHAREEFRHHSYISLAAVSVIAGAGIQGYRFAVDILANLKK

B1: 3-dehydroquinate dehydratase from Corynebacterium glutamicum, wild type (enzyme, Corynebacterium glutamicum ATCC 13032, UniProt O52377 1-145, looked up)
chain: T1 sequence (O52377 1-145)
notes: 3-dehydroquinate dehydratase (type II DHQD, EC 4.2.1.10) of Corynebacterium glutamicum ATCC 13032; The XhoI site of pET30a probably adds LE before the His tag (surmised); also called CgDHQD; CgDHQD^WT; source: E. coli BL21 (DE3)-T1R, purified (Ni-NTA, HiTrap Q ion exchange, size exclusion); copies: 12
B2: 3-dehydroquinate dehydratase from Corynebacterium glutamicum, R19A variant (enzyme, Corynebacterium glutamicum ATCC 13032, UniProt O52377 1-145, looked up)
chain: T1 sequence (O52377 1-145) with R19A
notes: also called CgDHQD^R19A; source: E. coli BL21 (DE3)-T1R, purified in the same manner as wild type (Ni-NTA, ion exchange, size exclusion)
B3: CgDHQD (Corynebacterium glutamicum ATCC 13032; S103T) (protein)
chain: T1 sequence (O52377 1-145) with S103T
notes: full length in pET30a (NdeI/XhoI), C-terminal 6xHis tag not reported cut, E. coli BL21(DE3); by primers starts MPGKILLLN, ends DILANLKK before tag

Legend:
CgDHQD [1] = target: T1, CgDHQD; assay: X-ray crystal structure, […] A, co-crystallised; conditions: active site, two binding modes; 0.2 M ammonium citrate tribasic pH 7.0 in the crystallisation solution
CgDHQD [2] = target: T2, CgDHQD (Corynebacterium glutamicum, UniProt O52377, R19A); assay: X-ray crystal structure, […] A, crystal soaked with […] DHQ; type: binding; conditions: active site; inactive variant; glycerol occupies the R19 side-chain space; pH 5.5
T2 construct: gene aroQ; full length in pET30a (NdeI/XhoI), C-terminal 6xHis tag not reported cut, E. coli BL21(DE3); by primers starts MPGKILLLN, ends DILANLKK before tag
T2 sequence (O52377 whole entry R19A): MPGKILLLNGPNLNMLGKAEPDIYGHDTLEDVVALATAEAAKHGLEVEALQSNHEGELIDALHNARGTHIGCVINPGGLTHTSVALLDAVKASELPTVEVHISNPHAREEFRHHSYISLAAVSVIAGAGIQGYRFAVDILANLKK

purified protein = substrate: O=C1C[C@@](O)(C(=O)O)C[C@@H](O)[C@@H]1O; assay: purified protein; type: biochemical, Corynebacterium glutamicum; conditions: 50 mM Tris-HCl pH 8.0, room temperature, 20 nM enzyme, 50-2,000 uM substrate
[3] = target: the molecule itself; assay: SEC; analytical size-exclusion chromatography, Superdex 200 Increase 10/300 GL, 150 mM NaCl, 40 mM Tris-HCl pH 8.0, 1 ml of 1 mg/ml protein, 277 K; calibrated with aldolase, ovalbumin, ribonuclease A, aprotinin
[4] = target: the molecule itself; assay: crystal structure; CgDHQD R19A, 0.8 M lithium sulfate, 0.4 M ammonium sulfate, 0.1 M sodium citrate pH 5.5, soaked with 100 mM DHQ; space group C2221, six molecules per asymmetric unit, 2.0 Å

Molecule	Km (purified protein)	kcat (purified protein)	other results
O=C(O)CC(O)(CC(=O)O)C(=O)O [citrate]	–	–	X-ray crystal structure, 1.80 A, co-crystallised (CgDHQD [1]): CgDHQD structure in complex with the citrate ion exhibits two different binding modes
O=C1C[C@@](O)(C(=O)O)C[C@@H](O)[C@@H]1O [DHQ, 3-dehydroquinic acid]	–	–	X-ray crystal structure, 2.00 A, crystal soaked with 100 mM DHQ (CgDHQD [2]): The DHQ-bound structure of CgDHQD explained the substrate-binding mode of the enzyme
B1	348.20 µM	150.19 s⁻¹	stoichiometry N [3]: 12
B2	–	–	binding result [4]: binds
B3	745.3 µM	199.67 s⁻¹	–
